Assay results as given in publication PMC12561925.

B1: recombinant soluble murine EphB3 Fc fusion protein (Fc fusion)
chain: LEETLMDTKWVTSELAWTSHPESGWEEVSGYDEAMNPIRTYQVCNVRESSQNNWLRTGFIWRREVQRVYVELKFTVRDCNSIPNIPGSCKETFNLFYYEADSDVASASSPFWMENPYVKVDTIAPDESFSRLDAGRVNTKVRSFGPLSKAGFYLAFQDQGACMSLISVRAFYKKCASTTAGFALFPETLTGAEPTSLVIAPGTCIANAVEVSVPLKLYCNGDGEWMVPVGACTCATGHEPAAKESQCRACPPGSYKAKQGEGPCLPCPPNSRTTSPAASICTCHNNFYRADSDSADSACTTVPSPPRGVISNVNETSLILEWSEPRDLGGRDDLLYNVICKKCRGSSGAGGPATCSRCDDNVEFVPRQLGLTERRVHISHLLAHTRYTFEVQAVNGVSGKSPLPPRYAAVNITTNQAAPSEVPTLHLHSSSGSSLTLSWAPPERPNGVILDYEMKYFEKSKGIASTVTSQKNSVQLDGLQPDARYVVQVRARTVAGYGQYSHPAEFETTSERGSGAQQLQEQLPL

What was measured:
[1] = molecular target: MHV68 gL-gH fusion protein (gL-Linker-gH-Linker-His6) (murine gammaherpesvirus 68 (MHV68))
[2] = molecular target: MHV68 gL-gH fusion protein (gL-Linker-gH-Linker-His6) (murine gammaherpesvirus 68 (MHV68)); assay: ELISA; MHV68 gL-gH fusion protein coated at 2.5 μg/ml in PBS on Maxisorp plates; soluble dimeric Eph-Fc proteins 2 h at room temperature in 1% BSA in PBS; detected with HRP-conjugated ProteinG; OD 450 nm; four-parameter dose-response fit

Row | Molecule | reduction of MHV68 ORF59-GFP infection of the murine endothelial cell line SVEC4-10 after pre-incubation of the virus with 100 nM homodimerized mEphA4-Fc [1] [%] | EC50 [2] [nM] | inhibition of MHV68 ORF59-GFP infection of human fibroblasts (HFF) and endothelial cells (TIME) after pre-incubation of the virus with 100 nM homodimerized mEphB3-Fc [1] [%]
1 | recombinant soluble murine EphA4 Fc fusion protein (from UniProt Q03137-1 20-547) | 25 | 3.6 | –
2 | B1 | – | 2.3 | 30
